Data reported in patent publication US20110191903A1, “ENGINEERING PLANT RESISTANCE TO DISEASES CAUSED BY PATHOGENS” (Pioneer Hi-Bred International, Inc., priority 2009, published 2011).

Legend:
Type in all cases: biochemical, Ceriporiopsis subvermispora
[1] = substrate: O=C(O)C(=O)O; experiment: Oxalate oxidase kinetics, coupled horse radish peroxidase assay, ALT5 (2-6)
Source text: (§1) The E. coli expression system was based on the published protocol of Escutia et al. Escutia et al., Cloning and sequencing of two Ceriporiopsis subvermispora bicupin oxalate oxidase allelic isoforms: implications for the reaction specificity of oxalate oxidases and decarboxylases. (2005). The coding sequence for the mature OXOX enzyme was inserted in E. coli expression vector pET32 (Invitrogen) to include a 6× histidine tag at the C-terminus. The resulting expression plasmid was transformed into E. coli strain BL21Star pLysS (Invitrogen).
(§2) E. coli cultures were grown at 37° C. At optical density 0.4, arabinose was added to a concentration or 0.4%. After another hour of growth at 37° C., MnCl2 was added to 5 mM and IPTG to 1 mM. Cultures were then grown at 25° C. for 16 hours. Cells were harvested by centrifugation at 4000 rpm for 10 min. The supernatant was discarded and cell pellets were kept at −80° C. for at least one hour. Pellets were resuspended in total 40 ml of lysis buffer with 50 mM phosphate buffer pH7, 2 mg/ml protease inhibitor (sigma P-8465), 100 mM KCL, 1/1000 lysozyme, 1/2000 endonuclease, and incubated at 37° C. with shaking for one hour, followed by sonication. Cellular debris was removed by centrifugation and the clarified supernatant was poured into a new tube. Nickel resin (Qiagen) was added. After a short period of incubation, the slurry was poured onto a column and washed with buffer. Purified OXOX protein was eluted from the resin in 50 mM succinate pH 5, 100 mM KCl. The E. coli expression procedure was scalable allowing large scale protein production for kinetic analysis as well as small scale production for high throughput screening of libraries.
(§3) Oxalate oxidase enzymatic activity was determined in a coupled reaction. Oxalate oxidase converts oxalic acid to carbon dioxide and hydrogen peroxide. In the presence of horse radish peroxidase, hydrogen peroxide reacts with 3-methyl-2-benzothiazolinone hydrazone (MBTH) and N,N-dimethylaniline (DMA) to form indamine dye, which can be detected spectrophotmetrically or colorimetrically as described by Laker, M. F., Hoffman, A. F., and Meeuse, J. D. (1980) Clinical Chemistry 26, 827-830. The coupled reaction was used for characterization of oxalate oxidase kinetic properties as well as in a screening procedure to identify oxalate oxidase variants with improved enzymatic properties.
(§4) DNA shuffling was performed as described elsewhere herein. A polymerase chain reaction product corresponding to the OXOX-C coding sequence was fragmented by limited nuclease treatment. Synthetic oligonucleotides encoding sequence diversity from oxalate decarboxylase sequences found in public databases were added. A polymerase chain reaction procedure was performed on the mixture to yield a library of full length OXOX-C coding sequences with additional diversity incorporated. The resulting library was inserted in expression vector pET32, E. coli cells were transformed and protein was expressed, as described in Example 2. A tiered screening strategy was devised based on the OXOX protein expression and enzymatic activity determination procedures described in Examples 2 and 3, respectively. A high throughput screening process based on colorimetric determination of OXOX activity was utilized to identify individual E. coli strains harboring active OXOX variants. These OXOX-active strains were reassayed using quantitative spectrophotometric determination of OXOX activity. […] Three rounds of this iterative screening and selection procedure were completed, and OXOX variants with up to 8-fold improved activity were identified
(§5) More modest improvements in Km and Kcat were observed under lower pH conditions. Coupled reaction was preformed as described in Example 3. Enzyme kinetic parameters were determined by standard methods as described in Segel (1976) Biochemical calculations, 2nd Edition. John Wiley & Sons, London, New York, Sydney, Toronto.

[2] = substrate: O=C(O)C(=O)O; experiment: Oxalate oxidase kinetics, coupled horse radish peroxidase assay, ALT2 (glyc-)
Source text: as §1, §2, §3
Three potential glycosylations sites with the consensus amino acid sequence N—X—(S/T) were identified in OXOX-C at amino acid positions 60, 384 and 430 in SEQ ID NO:27. Site-directed mutagenesis was used to alter these sites (Quickchange, Stratagene). Every possible amino acid substitution was generated at the third amino acid position of each potential glyosylation site. The resulting variants were screened for activity using the enzymatic assay described in Example 3. […] These variants correspond to sequences OXOX-C-MOD1-ALT1 (SEQ ID NO:23) and OXOX-C-MOD1-ALT2 (SEQ ID NO:24).
as §5

[3] = substrate: O=C(O)C(=O)O; experiment: Oxalate oxidase kinetics, coupled horse radish peroxidase assay, ALT3 (1-8)
Source text: as §1, §2, §3, §4, §5

[4] = substrate: O=C(O)C(=O)O; experiment: Oxalate oxidase kinetics, coupled horse radish peroxidase assay, ALT4 (1-23)
Source text: as §1, §2, §3, §4, §5

B1: Ceriporiopsis subvermispora oxalate oxidase OXOX-C variant ALT5 (2-6), I54M/I60E/I99V/W118Y/F259Y/I278V/F339Y/Y359F/F396Y relative to OXOX-C-ALT1 (SEQ ID NO: … (protein)
chain: RPTENGPQIVIANNAGTYLPVLRGSGTKSSSAADATQTVPFASDDPNPRLWDMDTKNLEKVTPERGQLGAKILGPDNLPIDLQNADTLAPPTTDSGSVPNPKWPFALSHNTLYSGGYVRIQNDEVMPIAKAMAGVNMRLEAGAIRELHWHNTPEWAYILKGTTQITAVDQNGRNYLANVGPGDLWYFPEGMPHSLQGTDANNEGSEFLLIFPDGTFDSSNQFMITDWLAHTPKDVIAKNFGVDISEFDRLPSHDLYIYPGVAPPLDAKAPEDPQGTVPLPYSFEFSKVKPTQYAGGTVKIADTRTFPIAKTISVAEVTVEPGAMRELHWHPTEDEWTYFIEGQARVTIFAGQSNAQTFDYQGGDIAYIPTAWGHYVENSGNTQLRFLEIFNSPLYEDVSLAQWIANTPPAIVKATLQLSDEVINTLNKQKAFVVG
B1 gave a Km ([1]; other: pH 3.8, pH 3.8) of 460 µM, a kcat ([1]; other: pH 3.8, pH 3.8) of 10.01 s⁻¹ and a Km ([1]; other: pH 4.8, pH 4.8) of 2320 µM. The kcat ([1]; other: pH 4.8, pH 4.8) was 7.06 s⁻¹, the Km ([1]; other: pH 5.8, pH 5.8) was 8910 µM and the kcat ([1]; other: pH 5.8, pH 5.8) was 2.44 s⁻¹.

B2: Ceriporiopsis subvermispora oxalate oxidase OXOX-C variant ALT2 (glyc-), glycosylation minus, T60R/T384V/S430D relative to SEQ ID NO: 37, SEQ ID NO: 24 … (protein)
chain: RPTENGPQIVIANNAGTYLPVLRGSGTKSSSAADATQTVPFASDDPNPRLWDIDTKNLRKVTPERGQLGAKILGPDNLPIDLQNADTLAPPTTDSGSIPNPKWPFALSHNTLYSGGWVRIQNDEVMPIAKAMAGVNMRLEAGAIRELHWHNTPEWAYILKGTTQITAVDQNGRNYLANVGPGDLWYFPEGMPHSLQGTDANNEGSEFLLIFPDGTFDSSNQFMITDWLAHTPKDVIAKNFGVDISEFDRLPSHDLYIFPGVAPPLDAKAPEDPQGTIPLPYSFEFSKVKPTQYAGGTVKIADTRTFPIAKTISVAEVTVEPGAMRELHWHPTEDEWTFFIEGQARVTIFAGQSNAQTYDYQGGDIAYIPTAWGHYVENSGNTVLRFLEIFNSPLFEDVSLAQWIANTPPAIVKATLQLSDEVINTLNKDKAFVVG
notes: glycosylation sites removed
B2 was tested, and the Km ([2]; other: pH 3.8, pH 3.8) was 280 µM, the kcat ([2]; other: pH 3.8, pH 3.8) was 5.60 s⁻¹ and the Km ([2]; other: pH 4.8, pH 4.8) was 1240 µM. For the same protein, the kcat ([2]; other: pH 4.8, pH 4.8) was 2.99 s⁻¹, the Km ([2]; other: pH 5.8, pH 5.8) was 5900 µM and the kcat ([2]; other: pH 5.8, pH 5.8) was 0.91 s⁻¹.

B3: Ceriporiopsis subvermispora oxalate oxidase OXOX-C variant ALT3 (1-8), I54M/I99V/W118Y/F259Y/I278V/F339Y/F396Y relative to OXOX-C-ALT1 (SEQ ID NO: 35), SEQ ID … (protein)
chain: RPTENGPQIVIANNAGTYLPVLRGSGTKSSSAADATQTVPFASDDPNPRLWDMDTKNLIKVTPERGQLGAKILGPDNLPIDLQNADTLAPPTTDSGSVPNPKWPFALSHNTLYSGGYVRIQNDEVMPIAKAMAGVNMRLEAGAIRELHWHNTPEWAYILKGTTQITAVDQNGRNYLANVGPGDLWYFPEGMPHSLQGTDANNEGSEFLLIFPDGTFDSSNQFMITDWLAHTPKDVIAKNFGVDISEFDRLPSHDLYIYPGVAPPLDAKAPEDPQGTVPLPYSFEFSKVKPTQYAGGTVKIADTRTFPIAKTISVAEVTVEPGAMRELHWHPTEDEWTYFIEGQARVTIFAGQSNAQTYDYQGGDIAYIPTAWGHYVENSGNTQLRFLEIFNSPLYEDVSLAQWIANTPPAIVKATLQLSDEVINTLNKQKAFVVG
B3 gave a Km ([3]; other: pH 3.8, pH 3.8) of 310 µM, a kcat ([3]; other: pH 3.8, pH 3.8) of 4.69 s⁻¹ and a Km ([3]; other: pH 4.8, pH 4.8) of 1700 µM. The kcat ([3]; other: pH 4.8, pH 4.8) was 3.21 s⁻¹, the Km ([3]; other: pH 5.8, pH 5.8) was 8380 µM and the kcat ([3]; other: pH 5.8, pH 5.8) was 1.36 s⁻¹.

B4: Ceriporiopsis subvermispora oxalate oxidase OXOX-C variant ALT4 (1-23), W118Y/I166V/F259Y/I278V/Y282F/F339Y/F396Y relative to OXOX-C-ALT1 (SEQ ID NO: 35), SEQ … (protein)
chain: RPTENGPQIVIANNAGTYLPVLRGSGTKSSSAADATQTVPFASDDPNPRLWDIDTKNLIKVTPERGQLGAKILGPDNLPIDLQNADTLAPPTTDSGSIPNPKWPFALSHNTLYSGGYVRIQNDEVMPIAKAMAGVNMRLEAGAIRELHWHNTPEWAYILKGTTQVTAVDQNGRNYLANVGPGDLWYFPEGMPHSLQGTDANNEGSEFLLIFPDGTFDSSNQFMITDWLAHTPKDVIAKNFGVDISEFDRLPSHDLYIYPGVAPPLDAKAPEDPQGTVPLPFSFEFSKVKPTQYAGGTVKIADTRTFPIAKTISVAEVTVEPGAMRELHWHPTEDEWTYFIEGQARVTIFAGQSNAQTYDYQGGDIAYIPTAWGHYVENSGNTQLRFLEIFNSPLYEDVSLAQWIANTPPAIVKATLQLSDEVINTLNKQKAFVVG
Protein B4 has a Km ([4]; other: pH 3.8, pH 3.8) of 350 µM, a kcat ([4]; other: pH 3.8, pH 3.8) of 4.08 s⁻¹ and a Km ([4]; other: pH 4.8, pH 4.8) of 1320 µM. For the same protein, the kcat ([4]; other: pH 4.8, pH 4.8) was 2.70 s⁻¹, the Km ([4]; other: pH 5.8, pH 5.8) was 5510 µM and the kcat ([4]; other: pH 5.8, pH 5.8) was 0.85 s⁻¹.
